Measured values published in patent publication US20250186597A1, “TARGETED IMMUNE ACTIVATION WITH IL-18 IMMUNOCYTOKINES” (BRIGHT PEAK THERAPEUTICS AG, priority 2023, published 2025).

T1: human IL-18BP (Homo sapiens, UniProt O95998)
T1 construct: His
T1 sequence (O95998 31-194): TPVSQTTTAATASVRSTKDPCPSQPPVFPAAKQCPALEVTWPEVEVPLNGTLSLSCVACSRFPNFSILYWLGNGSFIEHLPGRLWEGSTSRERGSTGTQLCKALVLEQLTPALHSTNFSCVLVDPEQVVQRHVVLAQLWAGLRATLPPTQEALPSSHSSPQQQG


Tests used:
human IL-18BP = target: T1, human IL-18BP; assay: IL-18BP binding alphaLISA assay (Example 4, used in Example 22B); details: IL-18BP AlphaLISA
Procedure: A human IL-18BP AlphaLISA Assay Kit is used to determine the binding affinity of each immunocytokine and IL-18 variant for IL-18BP, which detected the presence of free form IL-18BP.
Sixteen three-fold serial dilutions of IL-18 analytes are prepared in aMEM medium supplemented with 20% FCS, Glutamax, and 25 µM β-mercaptoethanol in the presence of 5 ng/mL of His-tagged human IL-18BP. Final IL-18 analytes concentration range from 2778 nM to […].
After 1 hr incubation at room temperature, free IL-18BP levels are measured using a […]. In a 384 well OPTIplate, 5 μL of 5× Anti-IL-18BP acceptor beads are added to 7.5 μL of an IL-18/IL-18BP mix. After 30 min incubation at room temperature with shaking, 5 μL of biotinylated Anti-IL-18BP antibodies are added to each well. The plate is incubated further for 1 hr at room temperature. Under subdued light, 12.5 μL of 2× streptavidin (SA) donor beads are pipetted into each well, and the wells are incubated with shaking for an additional 30 min at room temperature. The AlphaLisa signal is then measured on an Enspire plate reader with 680 and 615 nm as excitation and emission wavelengths, respectively. The dissociation constant (KD) is calculated based on a variable slope, four parameter analysis using GraphPad PRISM software.
An IL-18 binding protein AiphaLISA experiment substantially as described in Example 4 was performed on IL-18 polypeptide which can be incorporated into immunocytokine compositions as provided herein to assess ability to bind to IL-181BP. It is expected that the IL-18 polypeptides provided below would behave analogously to C086 (SEQ ID NO: 30) when incorporated into an immunocytokine composition as those otherwise provided herein.

NK-92 cells [1] = assay: IFNγ induction cellular assay in NK-92 cells (Example 4, used in Example 22C); format: cell-based, human; details: IFNg stimulation in NK92 cells
Procedure: The ability of immunocytokines and IL-18 polypeptides provided herein are assessed for ability to induce IFN[…] in a cellular assay according to the protocol below.
The NK cell line NK-92 derived from a patient with lymphoma (ATCC® CRL-2407™) is cultured in aMEM medium supplemented with 20% FCS, Glutamax, 25 µM B-mercaptoethanol, and 100 IU/mL of recombinant human IL-2.
On the day of experiment, cells are harvested and washed with aMEM medium without IL-2 and containing 1 ng/mL of recombinant human IL-12. After counting, cells are seeded at 100,000 cells/well in a 384 well titer plate and incubated at 37° C./5% CO2. Sixteen 4-fold serial dilutions of IL-18 analytes are prepared in aMEM medium, and 1 ng/mL of IL-12 were added to the NK-92 cells. Final IL-18 analyte concentrations range from 56 nM to 5×10^−5 pM.
After incubating the cells for 16-20 hr at 37° C./5% CO2, 5 μL of supernatant is carefully transferred to a 384 microwell OptiPlate. IFNγ levels are measured using a human IFNγ AlphaLISA Assay Kit. Briefly, 10 μL of 2.5× AlphaLISA Anti-IFNγ acceptor beads and biotinylated antibody anti-IFNγ mix are added to the 5 μL of NK-92 supernatants. The mixtures are incubated for 1 hr at room temperature with shaking. Under subdued light, 2.5 μL of 2× streptavidin (SA) donor beads are pipetted into each well, and the wells are incubated for 30 min at room temperature with shaking. AlphaLISA signals are then measured on an EnSpire™ plate reader using 680 nm and 615 nm as excitation and emission wavelengths, respectively. Half maximal effective concentrations (EC50) are calculated based on a variable slope and four parameter analysis using GraphPad PRISM software.
(§1) The experiments described in Example 4 for determination of IFNg stimulation in NK92 cells (and inhibition by IL-18 BP) were performed substantially as described on IL-18 polypeptides in order to assess their activities and their suitability for incorporation into immunocytokine compositions. It is expected that the IL-18 polypeptides provided below would behave analagously to C086 (SEQ ID NO: 30) when incorporated into an immunocytokine composition as those otherwise provided herein.

NK-92 cells [2] = assay: IL-18 binding protein inhibition cellular assay in NK-92 cells (Example 4, used in Example 22C); format: cell-based, human; details: inhibition by IL-18BP of IFNg stimulation in NK92 cells
Procedure: The NK cell line NK-92 derived from a patient with lymphoma (ATCC® CRL-2407™) is cultured in aMEM medium supplemented with 20% FCS-Glutamax, 25 µM B-mercaptoethanol, and 100 IU/mL of recombinant human IL-2.
On the day of experiment, cells are harvested and washed with aMEM medium without IL-2 and containing 1 ng/mL of recombinant human IL-12. After counting, the cells are seeded at 100,000 cells/well in a 384 well titer plate and incubated at 37° C./5% CO2. Sixteen 2-fold serial dilutions of Fc-fused human IL-18 binding protein isoform a (IL-18BPa) are prepared in aMEM medium. 1 ng/mL of IL-12 containing 2 nM of each IL-18 polypeptide variant is added to the NK-92 cells. The final IL-18 analyte concentration is 1 nM, and the final IL-18BPa concentration ranged from 566 nM to […].
After incubating the cells for 16-20 hr at 37° C./5% CO2, 5 μL of the supernatant is carefully transferred to a 384 microwell OptiPlate. IFNγ levels are measured using a human IFNγ AlphaLISA Assay Kit. Briefly, 10 μL of 2.5× AlphaLISA anti-IFNγ acceptor beads and biotinylated antibody anti-IFNγ mix are added to 5 μL of NK-92 supernatants. The mixtures are incubated for 1 hr at room temperature with shaking. Under subdued light, 2.5 μL of 2×SA donor beads are pipetted in each well and incubated for 30 min at room temperature with shaking. AlphaLISA signals are then measured on an EnSpire™ plate reader using 680 nm and 615 nm as excitation and emission wavelengths, respectively. Half maximal inhibitory concentrations (IC50) are calculated based on a variable slope and four parameter analysis using GraphPad PRISM software.
as §1

Row | Molecule | Kd (human IL-18BP) | EC50 (NK-92 cells [1]) | IC50 (NK-92 cells [2])
1 | 42 (protein) YFGKLKSKLSVIRNLNDQVLFIDQGNRPLFEDMTDSDCRDNAPRTIFIISMYADAQPRGMAVAISVKCEKISTLSCENKIISFKEMNPPDNIKDTKSDIIFFQRSVPGHDNKMQFESSSYEGYFLACEKERDLFKLILKKEDELGDRSIMFTVQNED | 822 nM | 0.144 nM | 1060 nM
2 | 6 (protein) YFGKLKSKLSIIRNLNDQVLFIDQGNRPLFEDMTDSDARDNAPRTIFIISMYADSQPRGMAVAISVKAEKISTLSAENKIISFKEMNPPDNIKDTKSCIIFFQRSVPGHDNKMQFESSSYEGYFLAAEKERDLFKLILKKEDELGDRSIMFTVQNED | – | 1.37 nM | 5.85 nM
3 | 49 (protein) YFGKLKSKLSVIRNLNDQVLFIDQGNRPLFEDMTDSDSRDNAPRTIFIISMYADAQPRGMAVTISVKSECISTLSSENKIISFKEMNPPDNIKDTKSDIIFFQRSVPGHDNKMQFESSSYEGYFLASEKERDLFKLILKKEDELGDRSIMFTVQNED | > 1000 nM | 58.5 nM | –
4 | 55 (protein) YFGKLESKLSVIRNLNDQVLFIDQGNRPLFEDMTDSDSRDNAPRTIFIISMYADSQPRGMAVAISVKSECISTLSSENKIISFKEMNPPDNIKDTKSDIIFFQRSVPGHDNKMQFESSSYEGYFLASEKERDLFKLILKKEDELGDRSIMFTVQNED | 913 nM | 17.2 nM | > 1000 nM
5 | 48 (protein) YFGKLESKLSVIRNLNDQVLFIDQGNRPLFEDMTDSDSRDNAPRTIFIISMYKDSQPRGMAVTISVKSECISTLSSENKIISFKEMNPPDNIKDTKSDIIFFQRSVPGHDNKMQFESSSYEGYFLASEKERDLFKLILKKEDELGDRSIMFTVQNED | 0.21 nM | 0.488 nM | 0.114 nM
6 | 57 (protein) YFGKLKSKLSVIRNLNDQVLFIDQGNRPLFEDMTDSDSRDNAPRTIFIISMYADSQPRGMAVTISVKCEKISTLSCENKIISFKEMNPPDNIKDTKSDIIFFQRSVPGHDNKMQFESSSYEGYFLACEKERDLFKLILKKEDELGDRSIMFTVQNED | 50.2 nM | 0.045 nM | 146 nM
7 | 5 (protein) YFGKLKSKLSIIRNLNDQVLFIDQGNRPLFEDMTDSDARDNAPRTIFIISMYADSQPRGMAVAISVKAEKISTLSAENKIISFKECNPPDNIKDTKSDIIFFQRSVPGHDNKMQFESSSYEGYFLAAEKERDLFKLILKKEDELGDRSIMFTVQNED | – | 0.075 nM | 62.4 nM
8 | 46 (protein) YFGKLKSKLSVIRNLNDQVLFIDQGNRPLFEDMTDSDCRDNAPRTIFIISGYADAQPRGMAVTISVKCEKISTLSCENKIISFKEMNPPDNIKDTKSDIIFFQRSVPGHDNKMQFESSSYEGYFLACEKERDLFKLILKKEDELGDRSIMFTVQNED | > 1000 nM | 7.4 nM | 0.189 nM
9 | 47 (protein) YFGKLESKLSVIRNLNDQVLFIDQGNRPLFEDMTDSDSRDNAPRTIFIISMYKDSQPRGMAVTISVKSEKISTLSSENKIISFKEMNPPDNIKDTKSDIIFFQRSVPGHDNKMQFESSSYEGYFLASEKERDLFKLILKKEDELGDRSIMFTVQNED | 0.03 nM | 0.115 nM | 0.444 nM
10 | 50 (protein) YFGKLKSKLSVIRNLNDQVLFIDQGNRPLFEDMTDSDCRDNAPRTIFIISMYADSQPRGMAVAISVKCEKISTLSCENKIISFKEMNPPDNIKDTKSDIIFFQRSVPGHDNKMQFESSSYEGYFLACEKERDLFKLILKKEDELGDRSIMFTVQNED | 340 nM | 0.0268 nM | > 1000 nM
11 | 54 (protein) YFGKLKSKLSVIRNLNDQVLFIDQGNRPLFEDMTDSDSRDNAPRTIFIISMYADSQPRGMAVTISVKSECISTLSSENKIISFKEMNPPDNIKDTKSDIIFFQRSVPGHDNKMQFESSSYEGYFLASEKERDLFKLILKKEDELGDRSIMFTVQNED | 446 nM | 0.962 nM | 23.5 nM
12 | C143: IL-18 polypeptide: V11I, C38A, K53A, C76A, C127A (protein) YFGKLESKLSIIRNLNDQVLFIDQGNRPLFEDMTDSDARDNAPRTIFIISMYADSQPRGMAVTISVKCEKISTLSAENKIISFKEMNPPDNIKDTKSDIIFFQRSVPGHDNKMQFESSSYEGYFLAAEKERDLFKLILKKEDELGDRSIMFTVQNED | 8.86 nM | 0.138 nM | 1.62 nM
13 | C145: IL-18 polypeptide: V11I, C38A, K53A, S55A, C76A, C127A (protein) YFGKLESKLSIIRNLNDQVLFIDQGNRPLFEDMTDSDARDNAPRTIFIISMYADAQPRGMAVTISVKCEKISTLSAENKIISFKEMNPPDNIKDTKSDIIFFQRSVPGHDNKMQFESSSYEGYFLAAEKERDLFKLILKKEDELGDRSIMFTVQNED | 9.74 nM | 0.087 nM | 10.2 nM
14 | C144: IL-18 polypeptide: V11I, C38A, K53A, T63A, C76A, C127A (protein) YFGKLESKLSIIRNLNDQVLFIDQGNRPLFEDMTDSDARDNAPRTIFIISMYADSQPRGMAVAISVKCEKISTLSAENKIISFKEMNPPDNIKDTKSDIIFFQRSVPGHDNKMQFESSSYEGYFLAAEKERDLFKLILKKEDELGDRSIMFTVQNED | 0.66 nM | 0.012 nM | 7.52 nM
